This note sets out measurements from paper PMC4176161 (Nucleic Acids Research, 2014).

Like-named read-outs stand apart in the source and are kept apart here.

Series [1] concerns the molecule itself. In words: native gel or EMSA. (In EMSA bound probe runs differently from free probe, usually more slowly.)
Series [2] deals with the molecule itself. In words: native gel or EMSA. This is another data set of the same source.

B1: …4 (SEP4) (natural protein)
chain: MGRGKVELKRIENKINRQVTFAKRRNGLLKKAYELSVLCDAEIALLIFSNRGKLYEFCSSPSGMARTVDKYRKHSYATMDPNQSAKDLQDKYQDYLKLKSRVEILQHSQRHLLGEELSEMDVNELEHLERQVDASLRQIRSTKARSMLDQLSDLKTKEEMLLETNRDLRRKLEDSDAALTQSFWGSSAAEQQQQHQQQQQGMSSYQSNPPIQEAGFFKPLQGNVALQMSSHYNHNPANATNSATTSQNVNGFFPGWMV
For orientation: stoichiometry N means a count of units in the complex or per binding partner. Take B1: the “stoichiometry N” value in “native gel or EMSA [1]” was 4; in “native gel or EMSA [2]”, 2.

B2: …2 (SEP2) (natural protein)
chain: not shown
Regarding B2, the entries for the “stoichiometry N” value in “native gel or EMSA [1]” and in “native gel or EMSA [2]” were 4 and 2, respectively.

B3: …1 (SEP1) (natural protein)
chain: MGRGRVELKRIENKINRQVTFAKRRNGLLKKAYELSVLCDAEVALIIFSNRGKLYEFCSSSNMLKTLDRYQKCSYGSIEVNNKPAKELENSYREYLKLKGRYENLQRQQRNLLGEDLGPLNSKELEQLERQLDGSLKQVRSIKTQYMLDQLSDLQNKEQMLLETNRALAMKLDDMIGVRSHHMGGGGGWEGGEQNVTYAHHQAQSQGLYQPLECNPTLQMGYDNPVCSEQITATTQAQAQQGNGYIPGWML
Consider B3, for which the results for the “stoichiometry N” value in the series “native gel or EMSA [1]” and in the series “native gel or EMSA [2]” were 4 and 2, respectively.
